The series relates to T1, MTA1c (MTA1/MTA9/p1/p2 complex) (Tetrahymena thermophila).
T1 sequence 1: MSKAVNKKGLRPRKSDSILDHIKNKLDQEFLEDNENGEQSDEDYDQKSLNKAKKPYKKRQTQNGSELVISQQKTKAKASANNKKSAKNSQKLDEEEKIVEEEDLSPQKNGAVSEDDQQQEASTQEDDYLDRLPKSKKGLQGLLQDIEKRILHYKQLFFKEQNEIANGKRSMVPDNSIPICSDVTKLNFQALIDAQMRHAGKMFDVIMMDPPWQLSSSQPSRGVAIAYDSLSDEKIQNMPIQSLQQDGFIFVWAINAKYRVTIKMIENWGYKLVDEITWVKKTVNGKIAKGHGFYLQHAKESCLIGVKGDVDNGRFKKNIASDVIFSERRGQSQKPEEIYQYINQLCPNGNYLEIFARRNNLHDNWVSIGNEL
T1 sequence 2: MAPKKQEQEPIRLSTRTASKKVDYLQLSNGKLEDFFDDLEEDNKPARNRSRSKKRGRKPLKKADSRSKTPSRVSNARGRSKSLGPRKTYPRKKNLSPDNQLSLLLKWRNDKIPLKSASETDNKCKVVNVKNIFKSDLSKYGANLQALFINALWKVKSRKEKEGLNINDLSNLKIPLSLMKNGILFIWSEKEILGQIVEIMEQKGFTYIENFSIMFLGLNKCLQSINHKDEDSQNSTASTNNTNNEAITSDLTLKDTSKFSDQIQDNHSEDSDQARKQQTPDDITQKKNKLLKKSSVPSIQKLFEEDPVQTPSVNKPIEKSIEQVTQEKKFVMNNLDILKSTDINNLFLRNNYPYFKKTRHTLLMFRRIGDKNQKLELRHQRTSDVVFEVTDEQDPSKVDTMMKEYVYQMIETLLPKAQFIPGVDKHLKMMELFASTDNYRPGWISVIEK
T1 sequence 3: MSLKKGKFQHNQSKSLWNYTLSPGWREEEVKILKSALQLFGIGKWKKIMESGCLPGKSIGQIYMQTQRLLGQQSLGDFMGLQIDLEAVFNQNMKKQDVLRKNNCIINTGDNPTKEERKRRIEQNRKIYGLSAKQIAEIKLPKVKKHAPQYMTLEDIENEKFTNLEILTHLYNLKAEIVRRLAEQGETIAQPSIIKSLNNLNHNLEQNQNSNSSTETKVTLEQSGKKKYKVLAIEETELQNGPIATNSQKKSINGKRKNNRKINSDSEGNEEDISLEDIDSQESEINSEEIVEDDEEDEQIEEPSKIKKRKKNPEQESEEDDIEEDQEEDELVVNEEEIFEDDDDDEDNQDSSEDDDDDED
T1 sequence 4: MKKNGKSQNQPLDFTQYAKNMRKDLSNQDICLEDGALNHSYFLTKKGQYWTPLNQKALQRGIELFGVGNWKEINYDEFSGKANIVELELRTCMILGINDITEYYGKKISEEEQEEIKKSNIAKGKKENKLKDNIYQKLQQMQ
The note with it: [3H]SAM assay, reference substrate.

Consider 27 bp dsDNA with two ApT motifs, for which the activity (relative activity) was determined as 1.

The values above are taken from US20210163900.
